Experimental data: patent US6903203B2, “Monoclonal antibody to CEA, conjugates comprising said antibody and their therapeutic use” (AstraZeneca UK Ltd., priority 1996, dated 2005)

T1: CEA (Homo sapiens, UniProt P06731)
T1 sequence (P06731 35-676): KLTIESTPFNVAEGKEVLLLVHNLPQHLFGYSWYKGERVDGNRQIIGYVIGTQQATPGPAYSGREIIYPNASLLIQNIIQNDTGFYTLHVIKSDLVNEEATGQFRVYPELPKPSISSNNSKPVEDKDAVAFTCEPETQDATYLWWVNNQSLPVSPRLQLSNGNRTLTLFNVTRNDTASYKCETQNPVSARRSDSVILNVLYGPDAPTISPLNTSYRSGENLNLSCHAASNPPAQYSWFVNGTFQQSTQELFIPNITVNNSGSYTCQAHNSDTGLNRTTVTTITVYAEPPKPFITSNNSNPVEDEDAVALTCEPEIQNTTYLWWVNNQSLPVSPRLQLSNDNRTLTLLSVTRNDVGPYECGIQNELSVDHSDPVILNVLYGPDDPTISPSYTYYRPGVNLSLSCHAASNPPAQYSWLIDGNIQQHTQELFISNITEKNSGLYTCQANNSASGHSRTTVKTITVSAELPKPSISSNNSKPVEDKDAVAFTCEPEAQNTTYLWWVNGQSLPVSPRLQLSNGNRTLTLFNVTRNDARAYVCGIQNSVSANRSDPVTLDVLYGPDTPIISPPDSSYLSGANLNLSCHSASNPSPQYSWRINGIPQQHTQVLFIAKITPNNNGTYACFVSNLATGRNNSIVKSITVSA


Tests used:
[1] = system: Colon tumours; assay: Three-stage indirect immunohistology on frozen sections, colon tumours; assay type: binding, human; details: tissue culture supernatant neat and diluted 1:10
Experimental: (§1) To assess selectivity, many human normal and tumour tissues have been screened for reactivity with the antibody 806.077, using sensitive three-stage indirect immunohistology on acetone-fixed, frozen cryostat sections.
(§2) Immunohistology was carried out on sections of human tissue obtained either at resection surgery or at post mortem. To preserve optimal morphology and antigenicity, tissues were obtained as fresh as possible, cut into small pieces (about 0.5 cm^3) and flash frozen in liquid nitrogen prior to storage at −80° C. Sections of tissue (6μ) were cut on a cryostat, mounted on polylysine coated slides (e.g. blue TECHMATE™ slides, Dako) and fixed in ice-cold acetone for 2 minutes before being wrapped in foil and stored at −80° C.
(§3) Slides were allowed to defrost at room temperature before being unwrapped from the foil immediately prior to use. […] Louis, U.S.A., Cat. No. M 9269) at 2 μg/ml in TBS, or relevant positive control such as LP34 (Dako). All subsequent incubations were carried out at room temperature for 30 minutes in a humidified chamber: all wash steps were in TBS with 2 changes. After incubation, the slides were washed and 100 μl of second antibody reagent, comprising 1/50 rabbit anti-mouse immunoglobulins conjugated to horse radish peroxidase (Dako Patts) and ⅕ normal human serum (Sigma) in TBS was added to each section.
The slides were again incubated and washed in TBS. […]

[2] = system: Breast tumours; assay: Three-stage indirect immunohistology on frozen sections, breast tumours; assay type: binding, human; set-up: key: +++ (strong)=antibody binding to >75% tumour cells; ++ (moderate)=antibody binding to 50%-75% tumour cells; + (weak)=antibody binding to 25%-50% tumour cells; +/− (minimal)=non-focal antibody binding to a small area of tumour cells; −=no staining; details: Breast tumours (n=6), score seen in 2/6 tumours; 2 μg/ml
Experimental: as §1, §2
(§4) Slides were allowed to defrost at room temperature before being unwrapped from the foil immediately prior to use. Each section was outlined with a diamond marker, and to each section was added either 100 μl 806.077 antibody diluted to 2 μg/ml in Tris-buffered Saline (TBS), or 100 μl CEA/NCA reactive control (A5B7 antibody) at 2 μg/ml in TBS, or 100 μl MOPC isotype control (Sigma Chemical Company, St. Louis, U.S.A., Cat. No. M 9269) at 2 μg/ml in TBS, or relevant positive control such as LP34 (Dako). All subsequent incubations were carried out at room temperature for 30 minutes in a humidified chamber: all wash steps were in TBS with 2 changes. […]

[3] = system: NSCLC tumours; assay: Three-stage indirect immunohistology on frozen sections, NSCLC tumours; assay type: binding, human; details: NSCLC tumours (n=6), score seen in 1/6 tumours; 2 μg/ml
Experimental: as §1, §2, §4

[4] = system: Ovary tumours; assay: Three-stage indirect immunohistology on frozen sections, ovary tumours; assay type: binding, human; details: Ovary tumours (n=3), any tumour; 2 μg/ml
Experimental: as §1, §2, §4

[5] = system: prostate tumours; assay: Three-stage indirect immunohistology on frozen sections, prostate tumours; assay type: binding, human; details: prostate tumours (n=3), any tumour; 2 μg/ml
Experimental: as §1, §2, §4

[6] = system: Lung (NCA reactivity); assay: Three-stage indirect immunohistology on frozen sections, normal lung; assay type: binding, human; set-up: key to degree of binding (staining score): +++ (strong)=antibody binding to >75% tumour cells; ++ (moderate)=antibody binding to 50%-75% tumour cells; + (weak)=antibody binding to 25%-50% tumour cells; +/− (minimal)=non-focal antibody binding to a small area of tumour cells; −=no staining
Experimental: as §1, §2, §3
The slides were again incubated and washed in TBS. A final detecting antibody, 100 μl swine anti-rabbit immunoglobulin conjugated to horse radish peroxidase ( 1/50 dilution with ⅕ normal human serum in TBS), was added to each section, incubated and washed thoroughly. DAB substrate (3,3′-diaminobenzidine tetrahydrochloride) was prepared using 1 DAB tablet (Sigma) with hydrogen peroxide (17 μl) in TBS (17 ml), and added dropwise through a fast filter paper (e.g. Whatman Number 4). After 3 minutes incubation the excess DAB was tapped off the slides and the slides were washed in TBS. […]

[7] = system: Spleen (granulocyte/NCA reactivity); assay: Three-stage indirect immunohistology on frozen sections, normal spleen; assay type: binding, human
Experimental: as §1, §2, §4

[8] = system: Post mortem normal tissues; assay: Three-stage indirect immunohistology on frozen sections, post mortem normal tissues; assay type: binding, human; details: cerebellum, mid-brain, cerebrum, smooth muscle, liver, kidney, aorta, stomach, heart; 2 μg/ml
Experimental: as §1, §2, §4

[9] = molecular target: T1, CEA; assay: CEA binding ELISA; details: media of NS0 clones
Experimental: For the CEA ELISA each well of a 96 well immunoplate (NUNC MAXISORB™) was coated with 50 ng CEA in 50 mM carbonate/bicarbonate coating buffer pH9.6 (buffer capsules—Sigma C3041) and incubated at 4° C. overnight. The plate was washed three times with PBS+0.05% Tween 20 and then blocked 150 μl per well of 1% BSA in PBS +0.05% Tween 20 for 1 hour at room temperature. The plate was washed as previously described, 100 μl of test sample added per well and incubated at room temperature for 2 hours. Again the plate was washed three times with PBS+0.05% Tween 20, 100 μl per well of a 1/500 dilution of HRPO-labelled goat anti-human kappa antibody (Sigma A 7164) was added, in 1% BSA in PBS-Tween 20 and incubated at room temperature on a rocking platform for at least 1 hour. The plate was washed as before and then once more with PBS. To detect binding add 100 μl per well developing solution (one capsule of phosphate-citrate buffer—Sigma P4922—dissolved in 100 mls H2O to which is added one 30 mg tablet o-phenylenediamine dihydrochloride—Sigma P8412) and incubated for up to 15 minutes. The reaction was stopped by adding 75 μl 2M H2SO4, and absorbance read at 490 nm.
Media from wells containing single viable clones was taken for testing and replaced with fresh media (containing G418). […]

Row | binding compared to A5B7 [1] | degree of binding (staining score) [2] | degree of binding (staining score) ([6]; normal lung (n=14), score seen in 10/14 tissues, 2 μg/ml) | binding compared to A5B7 ([6]; normal lung, tissue culture supernatant neat and diluted 1:10) | binding compared to A5B7 ([7]; normal spleen, tissue culture supernatant neat and diluted 1:10) | antibody binding to CEA in an ELISA [9] | Molecule | degree of binding (staining score) [3] | staining [4] | staining [5] | staining of normal lung tissues (summary statement) ([6]; 4/14 normal lung tissues tested) | staining ([7]; spleen (n=6), any of the tissues tested, 2 μg/ml) | reactivity [8]
1 | equivalent binding | +/− | − | much reduced binding | much reduced binding |  | 806.077 antibody: novel murine anti-CEA monoclonal antibody from hybridoma 806.077, ECACC deposit no. 96022936 (antibody, V domains shown) VH: EVQLQQSGAELVRSGASVKLSCTASGFNIKDNYMHWVKQRPEQGLEWIAWIDPENGDTEYAPKFRGKATLTADSSSNTAYLHLSSLTSEDTAVYYCHVLIYAGYLAMDYWGQGTSVAVSS VL: DIELTQSPAIMSASPGEKVTITCSASSSVTYMHWFQQKPGTSPKLWIYSTSNLASGVPARFSGSGSGTSYSLTISRMEAEDAATYYCQQRSTYPLTFGAGTKLELKRA | ++ (++ (moderate)=antibody binding to 50%-75% tumour cells) | No staining | No staining | minimal staining | No staining | negative
2 |  |  |  |  |  | positive | Example 75: [A248S,G251T,D253K]HCPB fused via (GGGS)3 linker to N-terminus of humanised 806.077 Fd (HuVH1-HuIgG3), with HuVK4-HuCK light chain (antibody) heavy: HHGGEHFEGEKVFRVNVEDENHINIIRELASTTQIDFWKPDSVTQIKPHSTVDFRVKAEDTVTVENVLKQNELQYKVLISNLRNVVEAQFDSRVRATGHSYEKYNKWETIEAWTQQVATENPALISRSVIGTTFEGRAIYLLKVGKAGQNKPAIFMDCGFHAREWISPAFCQWFVREAVRTYGREIQVTELLDKLDFYVLPVLNIDGYIYTWTKSRFWRKTRSTHTGSSCIGTDPNRNFDAGWCEIGASRNPCDETYCGPAAESEKETKALADFIRNKLSSIKAYLTIHSYSQMMIYPYSYAYKLGENNAELNALAKATVKELASLHGTKYTYGPGATTIYPSAGTSKDWAYDQGIRYSFTFELRDTGRYGFLLPESQIRATCEETFLAIKYVASYVLEHLYGGGSGGGSGGGSEVQLQQSGPGLVRPSQTLSLTCTASGFNIKDNYMHWVRQPPGRGLEWIGWIDPENGDTEYAPKFRGRVTMLADTSKNQFSLRLSSVTAADTAVYYCHVLIYAGYLAMDYWGQGTLVTVSSASTKGPSVFPLAPCSRSTSGGTAALGCLVKDYFPEPVTVSWNSGALTSGVHTFPAVLQSSGLYSLSSVVTVPSSSLGTQTYTCNVNHKPSNTKVDKRVELKTPLGDTTHTCPRCPEPKSCDTPPPCPRCPEPKSCDTPPPCPRCPEPKSCDTPPPCPRCPAPELLGG light: DIQMTQSPSSLSASVGDRVTITCSASSSVTYMHWYQQKPGKAPKLWIYSTSNLASGVPSRFSGSGSGTDYTFTISSLQPEDIATYYCQQRSTYPLTFGQGTKLEIKRTVAAPSVFIFPPSDEQLKSGTASVVCLLNNFYPREAKVQWKVDNALQSGNSQESVTEQDSKDSTYSLSSTLTLSKADYEKHKVYACEVTHQGLSSPVTKSFNRGEC |  |  |  |  |  | 
